According to the RNAGym collection of RNA variant scans (doi:10.7554/elife.90254):

B1: LINE1-full (parent)
chain: UACGUAGGUGGUUUUCCCCUGAUAGUGCUAAGGGGGCCUGGAAGUUUGGACUGGGCAGAGCUCAACACAGCGUGGCAAAGUGGCUGUGGCUAGACUGCCUCUCUGGAUUCCUCGUCACUCAGCAGGGCAUCUCUGAGAGAAAUGCC

Variants of: B1
Test: self-cleavage, relative activity (ratio to wild type); higher = more cleavage; in vitro, sequencing; the parent is a self-cleaving ribozyme

Row | Variant | self-cleavage
1 | UACGUAGGUGGUUCUCCCCUGAUAGUGCUAAGGGCGCCUGGAAGUUUGGACUGGGCAGAGCUCAACACAGCGUGGCAAAGUGGCUGUGGCUAGACUGCCUCUCUGGAUUCCUCGUCACUCAGCAGGGCAUCUCUGAGAGAAAUGCC [U14C G35C] | 1.46
2 | UACGUAGGUGGUUCUCCCCUGAUAGUGCUAAGGGUGCCUGGAAGUUUGGACUGGGCAGAGCUCAACACAGCGUGGCAAAGUGGCUGUGGCUAGACUGCCUCUCUGGAUUCCUCGUCACUCAGCAGGGCAUCUCUGAGAGAAAUGCC [U14C G35U] | 1.02
3 | UACGUAGGUGGUUCUCCCCUGAUAGUGCUAAGGGAGCCUGGAAGUUUGGACUGGGCAGAGCUCAACACAGCGUGGCAAAGUGGCUGUGGCUAGACUGCCUCUCUGGAUUCCUCGUCACUCAGCAGGGCAUCUCUGAGAGAAAUGCC [U14C G35A] | 1.22
4 | UACGUAGGUGGUUCUCCCCUGAUAGUGCUAAGGGGGCCUGGAAGUUUGGACUGGGCAGAGCUCAACACAGCGUGGCAAAGUGGCUGUGGCUAGACUGCUUCUCUGGAUUCCUCGUCACUCAGCAGGGCAUCUCUGAGAGAAAUGCC [U14C C99U] | 0.75
5 | UACGUAGGUGGUUCUCCCCUGAUAGUGCUAAGGGGGCCUGGAAGUUUGGACUGGGCAGAGCUAAACACAGCGUGGCAAAGUGGCUGUGGCUAGACUGCCUCUCUGGAUUCCUCGUCACUCAGCAGGGCAUCUCUGAGAGAAAUGCC [U14C C63A] | 0.06
6 | UACGUAGGUGGUUCUCCCCUGAUAGUGCUAAAGGGGCCUGGAAGUUUGGACUGGGCAGAGCUCAACACAGCGUGGCAAAGUGGCUGUGGCUAGACUGCCUCUCUGGAUUCCUCGUCACUCAGCAGGGCAUCUCUGAGAGAAAUGCC [U14C G32A] | 0.99
7 | UACGUAGGUGGUUCUCCCCUGAUAGUGCUAAGGGGGCCUGGAAGUUUGGACUGGGCAGAGCUCAACACAGCGUGGCAAAGUGGCUGUGGCUAGACUGUCUCUCUGGAUUCCUCGUCACUCAGCAGGGCAUCUCUGAGAGAAAUGCC [U14C C98U] | 0.07
8 | UACGUAGGUGGUUCUCCCCUGAUAGUGCUAAGGGGGCCUGGAAGUUUGGACUGGGCAGAGCUCAACACAGCGUGGCAAAGUGGCUGUGGAUAGACUGCCUCUCUGGAUUCCUCGUCACUCAGCAGGGCAUCUCUGAGAGAAAUGCC [U14C C90A] | 0
9 | UACGUAGGUGGUUCUCCCCUGAUAGUGCUAAGGGGGCCUGGAAGUUUGGACUGGGCAGAGCUCAACACAGCGUGGAAAAGUGGCUGUGGCUAGACUGCCUCUCUGGAUUCCUCGUCACUCAGCAGGGCAUCUCUGAGAGAAAUGCC [U14C C76A] | 1.31
10 | UACGUAGGUGGUUCUCCCCUGAUAGUGCUAAGGGGGCCUGGAAGUUUGGACUGGGCAGAGCUCAACACAGCGUGGCAAAGUGGCUGUGGCUAGACUGCCUCUCUGGAUUCCUCGUCACUUAGCAGGGCAUCUCUGAGAGAAAUGCC [U14C C120U] | 1.48
11 | UACGUAGGUGGUUCUCCCCUGAUAGUGCUAAGGGGGCCUUGAAGUUUGGACUGGGCAGAGCUCAACACAGCGUGGCAAAGUGGCUGUGGCUAGACUGCCUCUCUGGAUUCCUCGUCACUCAGCAGGGCAUCUCUGAGAGAAAUGCC [U14C G40U] | 1.06
12 | UACGUAGGUGGUUCUCCCCUGAUAGUGCUAAGGGGGCCUAGAAGUUUGGACUGGGCAGAGCUCAACACAGCGUGGCAAAGUGGCUGUGGCUAGACUGCCUCUCUGGAUUCCUCGUCACUCAGCAGGGCAUCUCUGAGAGAAAUGCC [U14C G40A] | 0.85
13 | UACGUAGGUGGUUCUCCCCUGAUAGUGCUAAGGGGGUCUGGAAGUUUGGACUGGGCAGAGCUCAACACAGCGUGGCAAAGUGGCUGUGGCUAGACUGCCUCUCUGGAUUCCUCGUCACUCAGCAGGGCAUCUCUGAGAGAAAUGCC [U14C C37U] | 0.95
14 | UACGUAGGUGGUUCUCCCCUGAUAGUGCUAAGGGGGGCUGGAAGUUUGGACUGGGCAGAGCUCAACACAGCGUGGCAAAGUGGCUGUGGCUAGACUGCCUCUCUGGAUUCCUCGUCACUCAGCAGGGCAUCUCUGAGAGAAAUGCC [U14C C37G] | 0.56
15 | UACGUAGGUGGUUCUCCCCUGAUAGUGCUAAGGGGGCCUGGAAGUUUGGACUGGGUAGAGCUCAACACAGCGUGGCAAAGUGGCUGUGGCUAGACUGCCUCUCUGGAUUCCUCGUCACUCAGCAGGGCAUCUCUGAGAGAAAUGCC [U14C C56U] | 0.18
16 | UACGUAGGUGGUUCUCCCCUGAUAGUGCUAAGAGGGCCUGGAAGUUUGGACUGGGCAGAGCUCAACACAGCGUGGCAAAGUGGCUGUGGCUAGACUGCCUCUCUGGAUUCCUCGUCACUCAGCAGGGCAUCUCUGAGAGAAAUGCC [U14C G33A] | 1.02
17 | UACGUAGGUGGUUCUCCCCUGAUAGUGCUAAGUGGGCCUGGAAGUUUGGACUGGGCAGAGCUCAACACAGCGUGGCAAAGUGGCUGUGGCUAGACUGCCUCUCUGGAUUCCUCGUCACUCAGCAGGGCAUCUCUGAGAGAAAUGCC [U14C G33U] | 1.14
18 | UACGUAGGUGGUUCUCCCCUGAUAGUGCUAAGGGGGCCUGGAAGUUUGGACUGGGCAGAGCUCAACACAGCGUGGCAAAGUGGCUGUGGCUAGACUGCCUCUCUGGAUUCCUCGUCACUCAGCAGGGCAUCUCUGUGAGAAAUGCC [U14C A136U] | 1.42
19 | UACGUAGGUGGUUCUCCCCUGAUAGUGCUAAGGGGGCCUGGAAGUUUGGACUGGGCAGAGCUCAACACAGCGUGGCAAAGUGGCUGUGGCUAGACUGCCUCUCUGGAUUCCUCGUCACUCAGCAGGGCAUCUCUGCGAGAAAUGCC [U14C A136C] | 1.36
20 | UACGUAGGUGGUUCUCCCCUGAUAGUGCUAAGGGGGCCUGGAAGUUUGGACUGGGCAGAGCUCAACACAGCGUGGCAAAGUGGCUGUGGCUAGACUGCCUCUCUGGAUUCCUCGUCACUCAGCAGGGCAUCUCUGGGAGAAAUGCC [U14C A136G] | 1.45

Row | Variant | self-cleavage
21 | UACGUAGGUGGUUCUCCCCUAAUAGUGCUAAGGGGGCCUGGAAGUUUGGACUGGGCAGAGCUCAACACAGCGUGGCAAAGUGGCUGUGGCUAGACUGCCUCUCUGGAUUCCUCGUCACUCAGCAGGGCAUCUCUGAGAGAAAUGCC [U14C G21A] | 1.39
22 | UACGUAGGUGGUUCUCCCCUGAUAGUGAUAAGGGGGCCUGGAAGUUUGGACUGGGCAGAGCUCAACACAGCGUGGCAAAGUGGCUGUGGCUAGACUGCCUCUCUGGAUUCCUCGUCACUCAGCAGGGCAUCUCUGAGAGAAAUGCC [U14C C28A] | 0.74
23 | UACGUAGGUGGUUCUCCCCUGAUAGUGUUAAGGGGGCCUGGAAGUUUGGACUGGGCAGAGCUCAACACAGCGUGGCAAAGUGGCUGUGGCUAGACUGCCUCUCUGGAUUCCUCGUCACUCAGCAGGGCAUCUCUGAGAGAAAUGCC [U14C C28U] | 0.8
24 | UACGUAGGUGGUUCUCCCCUGAUAGUGCUAAGGGGGCCUGGAAGUUUGGACUGGGCAGAGCUCAACACAGCGUGGCAAAGUGGCUGUGGCUAGACUGCCUCUCUGGAUUCCUCGUCACUCAGCAGGGCAUCUCUGAGGGAAAUGCC [U14C A138G] | 1.23
25 | UACGUAGGUGGUUCUCCCCUGAUAGUGCUAAGGGGGCCUGGAAGUUUGGACUGGGCAGAGCUCAACACAGCGUGGCAAAGUGGCUGUGGCUAGACUGCCUCUCUGGAUUCCUCGUCACUCAGCAGGGCAUCUCUGAGCGAAAUGCC [U14C A138C] | 1.56
26 | UACGUAGGUGGUUCUCCCCUGAUAGUGCUAAGGGGGCCUGGAAGUUUGGACUGGGCAGAGCUCAACACAGCGUGGCAAAGUGGCUGUGGCUAGACUGCCUCUCUGGAUUCCUCGUCACUCAGCAGGGCAUCUCUGAGUGAAAUGCC [U14C A138U] | 0.98
27 | UACGUAGGUGGUUCUCCCCUGAUAGUGCUAAGGGGGCCUGGAAGUUUGGACUGGGCAGAGCUCAACACAGCGUGGCAAAGUGGCUGUGGCUAGAUUGCCUCUCUGGAUUCCUCGUCACUCAGCAGGGCAUCUCUGAGAGAAAUGCC [U14C C95U] | 0.21
28 | UACGUAGGUGGUUCUCCCCUGAUAGUGCUAAGGGGGCCUGGAAGUUUGGACUGGGCAGAGCUCAACACAGCGUGGCAAAGUGGCUGUGGCUAGACUGCCUCUCUGGAUUCCUCGUCACUCAGCAGGGCGUCUCUGAGAGAAAUGCC [U14C A129G] | 1.02
29 | UACGUAGGUGGUUCUCCCCUGAUAGUGCUAAGGGGGCCUGGAAGUUUGGACUGGGCAGAGCUCAACACAGCGUGGCAAAGUGGCUGUGGCUAGACUGCCUCUCUGGAUUCAUCGUCACUCAGCAGGGCAUCUCUGAGAGAAAUGCC [U14C C111A] | 1.2
30 | UACGUAGGUGGUUCUCCCCUGAUAGUGCUAAGGGGGCCUGGAAGUUUGGACUGGGCAGAGCUCAACACAGCGUGGCAAAGUGGCUGUGGCUAGACUGCCUCUCUGGAUUCUUCGUCACUCAGCAGGGCAUCUCUGAGAGAAAUGCC [U14C C111U] | 1.14
31 | UACGUAGGUGGUUCUCCCCUGAUAGUGCUAAGGGGGCCUGGAAGUUUGGACUGGGCAGAGCUCAACACAGCGUGGCAAAGUGGCUGUGGCUAGACUGCCUCUCUGGAUUCCUCGUCACUCAGCAGGGCAUCUCUGAGAGUAAUGCC [U14C A140U] | 1.22
32 | UACGUAGGUGGUUCUCCCCUGAUAGUGCUAAGGGGGCCUGGAAGUUUGGACUGGGCAGAGCUCAACACAGCGUGGCAAAGUGGCUGUGGCUAGACUGCCUCUCUGGAUUCCUCGUCACUCAGCAGGGCAUCUCUGAGAGGAAUGCC [U14C A140G] | 0.87
33 | UACGUAGGUGGUUCUCCCCUGAUAGUGCUAAGGGGGCCUGGAAGUUUGGACUGGGCAGAGCUCAACACAGCGUGGCAAAGUGGCUGUGGCUAGACUGCCUCUCUGGAUUCCUCGUCACUCAGCAGGGCAUCUCUGAGAGAACUGCC [U14C A142C] | 1.87
34 | UACGUAGGUGGUUCUCCCCUGAUAGUGCUAAGGGGGCCUGGAAGUUUGGACUGGGCAGAGCUCAAUACAGCGUGGCAAAGUGGCUGUGGCUAGACUGCCUCUCUGGAUUCCUCGUCACUCAGCAGGGCAUCUCUGAGAGAAAUGCC [U14C C66U] | 0.03
35 | UACGUAGGUGGUUCUCCCCUGAUAGUGCUAAGGGGGCCUGGAAGUUUUGACUGGGCAGAGCUCAACACAGCGUGGCAAAGUGGCUGUGGCUAGACUGCCUCUCUGGAUUCCUCGUCACUCAGCAGGGCAUCUCUGAGAGAAAUGCC [U14C G48U] | 1.15
36 | UACGUAGGUGGUUCUCCCCUGAUAGUACUAAGGGGGCCUGGAAGUUUGGACUGGGCAGAGCUCAACACAGCGUGGCAAAGUGGCUGUGGCUAGACUGCCUCUCUGGAUUCCUCGUCACUCAGCAGGGCAUCUCUGAGAGAAAUGCC [U14C G27A] | 1.15
37 | UACGUAGGUGGUUCUCCCCUGAUAGUGCUAAGGGGGCCUGGAAGUUUGGACUGGGCAGAGCUCAACACAGCGUGGCAAAGUGGCUGUGGCUAGACUGCCUCUCUGGAUUCCUCGUUACUCAGCAGGGCAUCUCUGAGAGAAAUGCC [U14C C116U] | 1.14
38 | UACGUAGGUGGUUCUCCCCUGAUAGUGCUAAGGGGCCCUGGAAGUUUGGACUGGGCAGAGCUCAACACAGCGUGGCAAAGUGGCUGUGGCUAGACUGCCUCUCUGGAUUCCUCGUCACUCAGCAGGGCAUCUCUGAGAGAAAUGCC [U14C G36C] | 1.41
39 | UACGUAGGUGGUUCUCCCCUGAUAGUGCUAAGGGGGCCUGGAAGUUUGGACUGGGCAGAGCUCAACACAGCGUGGCAAAGUGGCUGUGGCUAGACUGCCUCUCUGGAUUCCUCGUCACUCAGCAGGGCAUCUCUGAGAGAGAUGCC [U14C A141G] | 1.03
